Laboratory results published in patent US7658917 (PRAECIS PHARMACEUTICALS, dated 2010).
Numbered stars: 1 amine (or outer) side, 2 acyl side, 3 side chain; on linkers, the order of the positions; unused ones are H or OH. Square brackets hold non-standard residues; d marks the D form. Primed or numbered codes have the meaning given here. * marks the point of attachment. Aic′ = 3-(O-aminoethyl-iso)-cholyl, C[C@H](CCC(=O)*)[C@H]1CC[C@H]2[C@@H]3[C@H](O)C[C@@H]4C[C@@H](OCCN)CC[C@]4(C)[C@H]3C[C@H](O)[C@]12C; Cholyl = C[C@H](CCC(=O)*)[C@H]1CC[C@H]2[C@@H]3[C@H](O)C[C@@H]4C[C@H](O)CC[C@]4(C)[C@H]3C[C@H](O)[C@]12C; Adp = aminoethyldibenzofuranylpropanoic acid, O=C(CCc1cccc2c1oc1c(CCN[*:1])cccc12)[*:2]; Tyr(3-I) = N[C@@H](Cc1ccc(O)c(I)c1)C(=O)O; Aic″ = 3-(O-aminoethyl-iso)-cholyl; NANA = N-acetyl neuraminyl; βAla = NCCC(=O)O

B1: CA-VFFA-oh (peptide)
peptide: Cholyl-VFFA-OH
SMILES: CC(C)[C@H](NC(=O)CC[C@@H](C)[C@H]1CC[C@H]2[C@@H]3[C@H](O)C[C@@H]4C[C@H](O)CC[C@]4(C)[C@H]3C[C@H](O)[C@]12C)C(=O)N[C@@H](Cc1ccccc1)C(=O)N[C@@H](Cc1ccccc1)C(=O)N[C@@H](C)C(=O)O
B2: CA-LVFFK-oh (peptide)
peptide: Cholyl-LVFFK-OH
SMILES: CC(C)C[C@H](NC(=O)CC[C@@H](C)[C@H]1CC[C@H]2[C@@H]3[C@H](O)C[C@@H]4C[C@H](O)CC[C@]4(C)[C@H]3C[C@H](O)[C@]12C)C(=O)N[C@H](C(=O)N[C@@H](Cc1ccccc1)C(=O)N[C@@H](Cc1ccccc1)C(=O)N[C@@H](CCCCN)C(=O)O)C(C)C
B3: CA-LAFFA-oh (peptide)
peptide: Cholyl-LAFFA-OH
SMILES: CC(C)C[C@H](NC(=O)CC[C@@H](C)[C@H]1CC[C@H]2[C@@H]3[C@H](O)C[C@@H]4C[C@H](O)CC[C@]4(C)[C@H]3C[C@H](O)[C@]12C)C(=O)N[C@@H](C)C(=O)N[C@@H](Cc1ccccc1)C(=O)N[C@@H](Cc1ccccc1)C(=O)N[C@@H](C)C(=O)O
B4: CA-LVFF-oh (peptide)
peptide: Cholyl-LVFF-OH
B5: CA-LVAFA-oh (peptide)
peptide: Cholyl-LVAFA-OH
SMILES: CC(C)C[C@H](NC(=O)CC[C@@H](C)[C@H]1CC[C@H]2[C@@H]3[C@H](O)C[C@@H]4C[C@H](O)CC[C@]4(C)[C@H]3C[C@H](O)[C@]12C)C(=O)N[C@H](C(=O)N[C@@H](C)C(=O)N[C@@H](Cc1ccccc1)C(=O)N[C@@H](C)C(=O)O)C(C)C
B6: h-KLVFF-nh2 (peptide)
peptide: H-KLVFF-NH2
B7: CA-HQKLVFF-nh2 (peptide)
peptide: Cholyl-HQKLVFF-NH2
B8: h-LVFFA-(Aic)-oh (peptide)
peptide: H-LVFFA[Aic″]-OH
B9: CA-FFA-oh (peptide)
peptide: Cholyl-Phe-Phe-Ala-OH
SMILES: C[C@H](NC(=O)[C@H](Cc1ccccc1)NC(=O)[C@H](Cc1ccccc1)NC(=O)CC[C@@H](C)[C@H]1CC[C@H]2[C@@H]3[C@H](O)C[C@@H]4C[C@H](O)CC[C@]4(C)[C@H]3C[C@H](O)[C@]12C)C(=O)O
B10: CA-KLVFF(βA)-oh (peptide)
peptide: Cholyl-KLVFF[βAla]-OH
SMILES: CC(C)C[C@H](NC(=O)[C@H](CCCCN)NC(=O)CC[C@@H](C)[C@H]1CC[C@H]2[C@@H]3[C@H](O)C[C@@H]4C[C@H](O)CC[C@]4(C)[C@H]3C[C@H](O)[C@]12C)C(=O)N[C@H](C(=O)N[C@@H](Cc1ccccc1)C(=O)N[C@@H](Cc1ccccc1)C(=O)NCCC(=O)O)C(C)C
B11: h-DDIIL-(Adp)-VFF-oh (peptide)
peptide: H-DDIIL[Adp]VFF-OH
SMILES: CC[C@H](C)[C@H](NC(=O)[C@H](CC(=O)O)NC(=O)[C@@H](N)CC(=O)O)C(=O)N[C@H](C(=O)N[C@@H](CC(C)C)C(=O)NCCc1cccc2c1oc1c(CCC(=O)N[C@H](C(=O)N[C@@H](Cc3ccccc3)C(=O)N[C@@H](Cc3ccccc3)C(=O)O)C(C)C)cccc12)[C@@H](C)CC
B12: CA-AVFFA-oh (peptide)
peptide: Cholyl-AVFFA-OH
SMILES: CC(C)[C@H](NC(=O)[C@H](C)NC(=O)CC[C@@H](C)[C@H]1CC[C@H]2[C@@H]3[C@H](O)C[C@@H]4C[C@H](O)CC[C@]4(C)[C@H]3C[C@H](O)[C@]12C)C(=O)N[C@@H](Cc1ccccc1)C(=O)N[C@@H](Cc1ccccc1)C(=O)N[C@@H](C)C(=O)O
B13: CA-LVFFA-nh2 (peptide)
peptide: Cholyl-LVFFA-NH2
B14: NANA-HQKLVFF-nh2 (peptide)
peptide: {NANA}-HQKLVFF-NH2
B15: CA-LVF-oh (peptide)
peptide: Cholyl-Leu-Val-Phe-OH
SMILES: CC(C)C[C@H](NC(=O)CC[C@@H](C)[C@H]1CC[C@H]2[C@@H]3[C@H](O)C[C@@H]4C[C@H](O)CC[C@]4(C)[C@H]3C[C@H](O)[C@]12C)C(=O)N[C@H](C(=O)N[C@@H](Cc1ccccc1)C(=O)O)C(C)C
B16: h-LVFFA-nh2 (peptide)
peptide: H-LVFFA-NH2
B17: CA-KTVFF-oh (peptide)
peptide: Cholyl-KTVFF-OH
SMILES: CC(C)[C@H](NC(=O)[C@@H](NC(=O)[C@H](CCCCN)NC(=O)CC[C@@H](C)[C@H]1CC[C@H]2[C@@H]3[C@H](O)C[C@@H]4C[C@H](O)CC[C@]4(C)[C@H]3C[C@H](O)[C@]12C)[C@@H](C)O)C(=O)N[C@@H](Cc1ccccc1)C(=O)N[C@@H](Cc1ccccc1)C(=O)O
B18: CA-FKFVL-oh (peptide)
peptide: Cholyl-FKFVL-OH
SMILES: CC(C)C[C@H](NC(=O)[C@@H](NC(=O)[C@H](Cc1ccccc1)NC(=O)[C@H](CCCCN)NC(=O)[C@H](Cc1ccccc1)NC(=O)CC[C@@H](C)[C@H]1CC[C@H]2[C@@H]3[C@H](O)C[C@@H]4C[C@H](O)CC[C@]4(C)[C@H]3C[C@H](O)[C@]12C)C(C)C)C(=O)O
B19: CA-FFVLA-oh (peptide)
peptide: Cholyl-FFVLA-OH
SMILES: CC(C)C[C@H](NC(=O)[C@@H](NC(=O)[C@H](Cc1ccccc1)NC(=O)[C@H](Cc1ccccc1)NC(=O)CC[C@@H](C)[C@H]1CC[C@H]2[C@@H]3[C@H](O)C[C@@H]4C[C@H](O)CC[C@]4(C)[C@H]3C[C@H](O)[C@]12C)C(C)C)C(=O)N[C@@H](C)C(=O)O
B20: CA-LV(IY)FA-oh (peptide)
peptide: Cholyl-LV[Tyr(3-I)]FA-OH
B21: CA-VFF-oh (peptide)
peptide: Cholyl-Val-Phe-Phe-OH
SMILES: CC(C)[C@H](NC(=O)CC[C@@H](C)[C@H]1CC[C@H]2[C@@H]3[C@H](O)C[C@@H]4C[C@H](O)CC[C@]4(C)[C@H]3C[C@H](O)[C@]12C)C(=O)N[C@@H](Cc1ccccc1)C(=O)N[C@@H](Cc1ccccc1)C(=O)O
B22: h-LVFFA-oh (peptide)
peptide: H-LVFFA-OH
B23: CA-LVFFAE-oh (peptide)
peptide: Cholyl-LVFFAE-OH
SMILES: CC(C)C[C@H](NC(=O)CC[C@@H](C)[C@H]1CC[C@H]2[C@@H]3[C@H](O)C[C@@H]4C[C@H](O)CC[C@]4(C)[C@H]3C[C@H](O)[C@]12C)C(=O)N[C@H](C(=O)N[C@@H](Cc1ccccc1)C(=O)N[C@@H](Cc1ccccc1)C(=O)N[C@@H](C)C(=O)N[C@@H](CCC(=O)O)C(=O)O)C(C)C
B24: NANA-KLVFF-oh (peptide)
peptide: {NANA}-KLVFF-OH
B25: h-(Aic)-LVFFA-oh (peptide)
peptide: H-[Aic′]LVFFA-OH
SMILES: CC(C)C[C@H](NC(=O)CC[C@@H](C)[C@H]1CC[C@H]2[C@@H]3[C@H](O)C[C@@H]4C[C@@H](OCCN)CC[C@]4(C)[C@H]3C[C@H](O)[C@]12C)C(=O)N[C@H](C(=O)N[C@@H](Cc1ccccc1)C(=O)N[C@@H](Cc1ccccc1)C(=O)N[C@@H](C)C(=O)O)C(C)C
B26: CA-LVFFA-o-methyl (peptide)
peptide: Cholyl-LVFFA-OMe

Target: natural β-amyloid peptide β-AP1-40 (human)
Sequence (peptide, as listed by the source): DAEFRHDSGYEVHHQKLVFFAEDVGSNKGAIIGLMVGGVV
Assay: cell-based or functional assay

Row | Binder | % Iext'n; seeded extension assay; 25 mole % | % Inucl'n; nucleation assay; 100 mole % | ΔLag; nucleation assay; 100 mole % | % Inucl'n; nucleation assay; 33 mole % | ΔLag; nucleation assay; 33 mole %
1 | B1 | 10% | 76% | 2 ratio |  | 
2 | B2 | 85% |  |  | 100% | > 5 ratio
3 | B3 | 66% | 47% | 1.5 ratio |  | 
4 | B4 | 51% |  |  | 72% | 1.8 ratio
5 | B5 | 0% | 25% | 2.7 ratio |  | 
6 | B6 | 39% | -9% | 1.3 ratio |  | 
7 | B7 |  |  |  | 5% | 1.1 ratio
8 | B8 | 3% | 46% | 3.5 ratio |  | 
9 | B9 | 6% | 51% | 1 ratio |  | 
10 | B10 | 80% | 76% | 2.5 ratio |  | 
11 | B11 | 0% | 14% | 0.4 ratio |  | 
12 | B12 | 44% | 68% | 1.4 ratio |  | 
13 | B13 | 91% | -200% | 1 ratio |  | 
14 | B14 |  | -15% | 1.5 ratio |  | 
15 | B15 | 0% | 1% | 1.3 ratio |  | 
16 | B16 | 70% | 11% | 1.3 ratio |  | 
17 | B17 | 21% | 18% | 1.2 ratio |  | 
18 | B18 | 37% | 45% | 0.8 ratio |  | 
19 | B19 | 89% | 100% | > 5 ratio |  | 
20 | B20 | 71% | 100% | > 5 ratio |  | 
21 | B21 | 0% | 55% | 1.8 ratio |  | 
22 | B22 | 11% | 15% | 1 ratio |  | 
23 | B23 | 16% | 55% | 1.4 ratio |  | 
24 | B24 | 8% | 16% | 0.9 ratio |  | 
25 | B25 | 87% |  |  | 100% | > 5 ratio
26 | B26 | 0% |  |  |  | 
